What all share (assay): G' assay
In assay [1] the target is T1, GST-MUPP1 PDZ domain 3 (Homo sapiens (Human)), O75970.
T1 chain: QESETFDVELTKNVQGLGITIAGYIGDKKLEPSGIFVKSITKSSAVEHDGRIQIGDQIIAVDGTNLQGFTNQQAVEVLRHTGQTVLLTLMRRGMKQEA

For assay [2], the target named is GST-KIAA1222 PDZ domain 1 (Rattus norvegicus (Rat)), O35867.
For assay [3], the target named is T2, GST-MUPP1 PDZ domain 1 (Homo sapiens (Human)), O75970.
T2 chain: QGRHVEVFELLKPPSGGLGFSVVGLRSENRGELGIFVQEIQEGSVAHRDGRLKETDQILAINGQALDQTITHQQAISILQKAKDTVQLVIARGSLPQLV

For assay [4], the target named is GST-PSD95 PDZ domain 1 (Homo sapiens).
Assay [5] has as its target T3, GST-KIAA0340 PDZ domain 1 (Homo sapiens (Human)), Q86UR5.
T3 chain: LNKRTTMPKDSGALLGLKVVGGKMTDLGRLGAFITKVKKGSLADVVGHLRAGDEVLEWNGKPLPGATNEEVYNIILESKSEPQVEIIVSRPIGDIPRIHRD

The target in assay [6] is T4, GST-GRIP 1 PDZ domain 3 (Homo sapiens (Human)), Q9Y3R0.
T4 chain: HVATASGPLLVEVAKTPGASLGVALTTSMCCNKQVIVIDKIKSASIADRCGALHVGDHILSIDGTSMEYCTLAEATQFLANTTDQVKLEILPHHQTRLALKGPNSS

For assay [7], the target named is T5, GST-GRIP 1 PDZ domain 5 (Homo sapiens (Human)), Q9Y3R0.
T5 chain: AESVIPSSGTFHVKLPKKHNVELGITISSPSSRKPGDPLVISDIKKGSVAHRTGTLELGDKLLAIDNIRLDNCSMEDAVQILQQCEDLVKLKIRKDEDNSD

Assay [8] addresses T6, GST-KIAA1634 PDZ domain 2 (Homo sapiens (Human)), Q5TCQ9.
T6 chain: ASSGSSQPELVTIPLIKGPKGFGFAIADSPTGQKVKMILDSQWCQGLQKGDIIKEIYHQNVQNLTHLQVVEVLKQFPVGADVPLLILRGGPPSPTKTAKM

Assay [9] has as its target T7, GST-novel PDZ gene PDZ domain 1 (Homo sapiens (Human)), Q9H5P4.
T7 chain: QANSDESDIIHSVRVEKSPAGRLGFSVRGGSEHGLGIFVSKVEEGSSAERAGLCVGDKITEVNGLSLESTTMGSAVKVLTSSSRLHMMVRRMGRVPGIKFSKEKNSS

The target of assay [10] is T8, GST-KIAA1095 PDZ domain 1 (Homo sapiens (Human)), Q9UPQ7.
T8 chain: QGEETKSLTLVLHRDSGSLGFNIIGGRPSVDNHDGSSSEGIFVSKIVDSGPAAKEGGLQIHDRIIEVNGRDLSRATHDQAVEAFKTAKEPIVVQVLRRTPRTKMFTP

Assay [11] deals with T9, GST-PTN-4 PDZ domain 1 (Homo sapiens (Human)), P29074.
T9 chain: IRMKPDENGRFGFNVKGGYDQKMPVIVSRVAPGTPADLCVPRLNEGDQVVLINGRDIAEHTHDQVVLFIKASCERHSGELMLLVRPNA

Assay [12] has as its target T10, GST-Syntrophin gamma 2 PDZ domain 1 (Homo sapiens (Human)), Q9NY99.
T10 chain: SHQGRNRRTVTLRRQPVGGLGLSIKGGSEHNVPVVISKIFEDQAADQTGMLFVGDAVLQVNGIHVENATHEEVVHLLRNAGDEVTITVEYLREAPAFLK

The target in assay [13] is T11, GST-PSD95 PDZ domain 3 (Homo sapiens).
T11 chain: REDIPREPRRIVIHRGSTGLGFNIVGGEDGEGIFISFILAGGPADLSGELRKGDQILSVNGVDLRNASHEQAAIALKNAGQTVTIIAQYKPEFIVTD

Assay [14] has as its target T12, GST-LIMK1 PDZ domain 1 (Homo sapiens (Human)), P53667.
T12 chain: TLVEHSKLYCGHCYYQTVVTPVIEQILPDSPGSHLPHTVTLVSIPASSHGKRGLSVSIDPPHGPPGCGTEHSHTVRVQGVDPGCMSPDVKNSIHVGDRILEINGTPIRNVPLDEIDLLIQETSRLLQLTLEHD

For assay [15], the target named is GST-KIAA0316 PDZ domain 1 (Homo sapiens (Human)), Q14CM0.
GST-KIAA0316 PDZ domain 1 (Homo sapiens (Human)), Q14CM0, sequence (Q14CM0 72-159): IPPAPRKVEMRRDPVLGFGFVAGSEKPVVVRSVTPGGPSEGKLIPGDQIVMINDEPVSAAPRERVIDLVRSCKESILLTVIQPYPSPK
Assay [16] has as its target GST-PIST PDZ domain 1 (Mus musculus (Mouse)), Q8BH60.
Assay [17] has as its target T13, GST-Shank 3 PDZ domain 1 (human (hypothetical, computer cloned)), Q9BYB0.
T13 chain: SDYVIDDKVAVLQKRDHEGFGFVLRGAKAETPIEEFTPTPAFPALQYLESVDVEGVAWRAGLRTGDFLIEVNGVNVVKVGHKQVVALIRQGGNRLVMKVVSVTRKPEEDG

In assay [18] the target is T14, GST-PDZK1 PDZ domains 2, 3, 4, Q5T2W1.
T14 chain: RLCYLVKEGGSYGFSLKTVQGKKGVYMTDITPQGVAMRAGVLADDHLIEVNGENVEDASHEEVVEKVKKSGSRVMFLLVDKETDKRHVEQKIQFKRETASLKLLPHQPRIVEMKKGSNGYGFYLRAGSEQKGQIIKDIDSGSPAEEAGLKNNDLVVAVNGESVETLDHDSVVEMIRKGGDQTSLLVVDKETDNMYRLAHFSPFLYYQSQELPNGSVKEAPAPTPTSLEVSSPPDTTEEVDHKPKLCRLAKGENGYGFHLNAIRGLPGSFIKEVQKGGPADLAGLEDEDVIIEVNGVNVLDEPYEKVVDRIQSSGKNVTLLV

Assay [19] has as its target T15, GST-MUPP1 PDZ domain 8 (Homo sapiens (Human)), O75970.
T15 chain: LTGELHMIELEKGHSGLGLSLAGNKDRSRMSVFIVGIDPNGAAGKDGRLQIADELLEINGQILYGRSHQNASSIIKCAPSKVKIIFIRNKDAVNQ

Where two headings read alike, the source gives them in different places.
Note: key of the grades not given here.

GST-KIAA1222 PDZ domain 1 (Rattus norvegicus (Rat)), O35867, sequence (O35867 499-598, tags or fused parts left off): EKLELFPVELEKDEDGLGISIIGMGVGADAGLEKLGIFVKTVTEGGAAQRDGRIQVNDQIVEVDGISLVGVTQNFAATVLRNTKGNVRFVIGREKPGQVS

On to KTMPAAMYRLLTAQEQPVYI (modifications not checked) [MINT-1], for which the Classification in [1] was determined as 3 A450 class; in [2], 1 A450 class; in [3] it was 1 A450 class.
For PYSELNYETSHYPASPDSWV (modifications not checked) [catenin - delta 2], the Classification in assay [4] amounted to 1 A450 class.
On to ILNSIQVMRAQMNQIQSVEV (modifications not checked) [ephrin B2], for which the Classification in assay [5] stood at 2 A450 class; in assay [6], 1 A450 class; in assay [7] it was 1 A450 class; in assay [8] it was 1 A450 class; in assay [9], 2 A450 class; in assay [1] it was 1 A450 class.
In the case of TQGFPGPATWRRISSLESEV (modifications not checked) [NMDA Glutamate Receptor 2C (cysteine-free)], the Classification is 3 A450 class in assay [8]; 1 A450 class in [10]; 5 A450 class in [4]; 2 A450 class in assay [11]; 2 A450 class in [12]; 2 A450 class in assay [13]. This molecule also yielded a Classification in assay [14] of 1 A450 class.
Regarding VPGALDYAAFSSALYGESDL (modifications not checked) [a-actinin 2], the values for the Classification in assay [9], in assay [15] and in [12] were 2 A450 class, 1 A450 class and 1 A450 class, respectively.
As for VGTLLLERVIFPSVKIATLV (modifications not checked) [AdenoE4 typ9], the Classification in assay [8] worked out at 5 A450 class; in [4], 4 A450 class; in assay [2] it was 1 A450 class; in assay [16] it was 1 A450 class.
As for QISPGGLEPPSEKHFRETEV (modifications not checked) [TAX], the Classification is 2 A450 class in [8]; 5 A450 class in assay [4]; 2 A450 class in assay [11]; 1 A450 class in [12]; 1 A450 class in assay [13]; 1 A450 class in assay [14].
Consider AWDDSARAAGGQGLHVTAL (modifications not checked) [LPAP], for which the Classification in [17] was determined as 3 A450 class; in [6], 1 A450 class; in assay [18], 3 A450 class; in assay [15] (remark: other sources report otherwise) it was 1 A450 class; in assay [16] it was 1 A450 class.
With HDFRRAFKKILARGDRKRIV (modifications not checked) [alpha-2A Adrenergic receptor], the Classification in [5] and in [19] was 1 A450 class each time.
In the case of PIPAGGCTFSGIFPTLTSPL (modifications not checked) [KIA 1481], the Classification stood at 3 A450 class in assay [17]; 2 A450 class in assay [18]; 1 A450 class in assay [8]; 1 A450 class in [10]; 1 A450 class in [9].
Take ELLQFCRTPNPALKNGQYWV (modifications not checked) [CSPG4 (chondroitin sulfae proteoglycan 4, melanoma-associated)]: the Classification in assay [19] was found to be 2 A450 class; in assay [7], 1 A450 class; in assay [3], 2 A450 class.
